Assay results: IntAct's records for PubMed 24997600

B1: Regulation of nuclear pre-mRNA domain-containing protein 1B (Homo sapiens), Q9NQG5 (parent)
chain: MSSFSESALEKKLSELSNSQQSVQTLSLWLIHHRKHAGPIVSVWHRELRKAKSNRKLTFLYLANDVIQNSKRKGPEFTREFESVLVDAFSHVAREADEGCKKPLERLLNIWQERSVYGGEFIQQLKLSMEDSKSPPPKATEEKKSLKRTFQQIQEEEDDDYPGSYSPQDPSAGPLLTEELIKALQDLENAASGDATVRQKIASLPQEVQDVSLLEKITDKEAAERLSKTVDEACLLLAEYNGRLAAELEDRRQLARMLVEYTQNQKDVLSEKEKKLEEYKQKLARVTQVRKELKSHIQSLPDLSLLPNVTGGLAPLPSAGDLFSTD

Variants of: B1
Conditions: with rpb1_human POLR2A

| Variant | effect of a mutation on the interaction |
| --- | --- |
| MSSFSESALEKKLSELSNSQQSVQTLSLWLIHHRKHAGPIVSVWHRELRKAKSNRKLTFLYLANDVIQNSKRKGPEFTREFESVLVDAFSHVAREADEGCKKPLERLLNIWQEASVYGGEFIQQLKLSMEDSKSPPPKATEEKKSLKRTFQQIQEEEDDDYPGSYSPQDPSAGPLLTEELIKALQDLENAASGDATVRQKIASLPQEVQDVSLLEKITDKEAAERLSKTVDEACLLLAEYNGRLAAELEDRRQLARMLVEYTQNQKDVLSEKEKKLEEYKQKLARVTQVRKELKSHIQSLPDLSLLPNVTGGLAPLPSAGDLFSTD [R114A] | disrupting interaction strength |
